# From PMC12560177 (Journal of the American Chemical Society, 2025)
# Square brackets hold non-standard residues; d marks the D form. Ends that are not written are not given here. Aib = CC(C)(N)C(=O)O
# Tests used:
# [1] = molecular target: T1, GLP-1R (Homo sapiens, UniProt P43220); experiment: β-arrestin-2 recruitment to GLP-1R measured by BRET; assay type: cell-based; conditions: for Emax: HEK-293T, read-out: β-arrestin-2 Max response (% GLP-1)
# [2] = overweight and obese individuals, 24-week Phase 2 clinical trial; cited from earlier work
# [3] = molecular target: glucagon-like peptide-1 receptor (UniProt P43220)
# [4] = molecular target: GLP-1R-Rluc8 (UniProt P43220)
# [5] = molecular target: T1, GLP-1R; conditions: vs GLP-1; stated as an observation, no reference given; cited from earlier work
# [6] = molecular target: glucagon receptor (UniProt P47871)
# [7] = molecular target: glucose-dependent insulinotropic polypeptide receptor (UniProt P48546)
# Chain of glucose-dependent insulinotropic polypeptide receptor (P48546 22-466): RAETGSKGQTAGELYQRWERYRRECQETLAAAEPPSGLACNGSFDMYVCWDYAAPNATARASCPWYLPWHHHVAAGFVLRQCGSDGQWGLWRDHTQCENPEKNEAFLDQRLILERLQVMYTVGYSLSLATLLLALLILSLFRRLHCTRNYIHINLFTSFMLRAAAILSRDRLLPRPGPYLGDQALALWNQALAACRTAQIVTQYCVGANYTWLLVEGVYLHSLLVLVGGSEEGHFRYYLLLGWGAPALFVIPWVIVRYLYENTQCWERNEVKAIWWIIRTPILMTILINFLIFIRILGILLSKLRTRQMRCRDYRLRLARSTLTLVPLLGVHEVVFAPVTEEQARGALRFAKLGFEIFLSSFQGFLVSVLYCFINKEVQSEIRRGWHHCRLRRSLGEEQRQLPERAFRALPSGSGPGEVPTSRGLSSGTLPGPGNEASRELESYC
# T1 sequence (P43220 24-463, species assumed): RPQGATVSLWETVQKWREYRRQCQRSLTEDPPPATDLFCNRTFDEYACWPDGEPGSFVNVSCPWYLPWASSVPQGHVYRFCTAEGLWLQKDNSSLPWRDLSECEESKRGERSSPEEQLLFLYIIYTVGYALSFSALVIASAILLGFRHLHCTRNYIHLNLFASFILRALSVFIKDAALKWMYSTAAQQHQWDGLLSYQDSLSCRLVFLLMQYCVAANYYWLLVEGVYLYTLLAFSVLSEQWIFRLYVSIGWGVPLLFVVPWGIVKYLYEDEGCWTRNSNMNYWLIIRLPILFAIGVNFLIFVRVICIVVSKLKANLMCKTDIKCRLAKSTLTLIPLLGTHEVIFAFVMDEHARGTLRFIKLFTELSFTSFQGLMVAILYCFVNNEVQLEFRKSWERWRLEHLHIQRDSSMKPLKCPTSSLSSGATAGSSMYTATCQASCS
# Chain of glucagon-like peptide-1 receptor (P43220 24-463): as the sequence (P43220 24-463, species assumed) above
# Chain of GLP-1R-Rluc8 (P43220 24-463): as the sequence (P43220 24-463, species assumed) above
Compound,Emax [1],"EC50, cAMP-dependent CRE6x-luciferase reporter gene assay, HEK293 cells [3]","pEC50 of β-arrestin-2 recruitment to GLP-1R, BRET, HEK293T cells [4]",other results
CC[C@H](C)[C@H](NC(=O)[C@H](Cc1ccccc1)NC(=O)[C@H](C)NC(=O)C(C)(C)NC(=O)[C@H](CCC(N)=O)NC(=O)[C@H](C)NC(=O)[C@H](CCCCNC(=O)COCCOCCNC(=O)CC[C@H](NC(=O)CCCCCCCCCCCCCCCCCCC(=O)O)C(=O)O)NC(=O)[C@H](CCCCN)NC(=O)[C@H](CC(=O)O)NC(=O)[C@H](CC(C)C)NC(=O)[C@](C)(CC(C)C)NC(=O)[C@@H](NC(=O)[C@H](CO)NC(=O)[C@H](Cc1ccc(O)cc1)NC(=O)[C@H](CC(=O)O)NC(=O)[C@H](CO)NC(=O)[C@@H](NC(=O)[C@H](Cc1ccccc1)NC(=O)[C@@H](NC(=O)CNC(=O)[C@H](CCC(N)=O)NC(=O)C(C)(C)NC(=O)[C@@H](N)Cc1ccc(O)cc1)[C@@H](C)O)[C@@H](C)O)[C@@H](C)CC)C(=O)N[C@@H](CCC(=O)O)C(=O)N[C@@H](Cc1ccc(O)cc1)C(=O)N[C@@H](CC(C)C)C(=O)N[C@@H](CC(C)C)C(=O)N[C@@H](CCC(=O)O)C(=O)NCC(=O)NCC(=O)N1CCC[C@H]1C(=O)N[C@@H](CO)C(=O)N[C@@H](CO)C(=O)NCC(=O)N[C@@H](C)C(=O)N1CCC[C@H]1C(=O)N1CCC[C@H]1C(=O)N1CCC[C@H]1C(=O)N[C@@H](CO)C(N)=O [Retatrutide],58 ± 5%,–,–,maximal weight loss [2]: 24%
GEP44 (peptide),–,0.64 pM,7.67,–
GLP-1(9–36 amide),–,–,–,"loss in receptor potency of the DPP4-truncated form [5]: > 1,000 fold"
H[Aib]QGTFTSDYSKYLDERAAQDFVQWLLDGGPSLRHYLNLVTRQRY-NH2 (C-terminus assumed) [TC0],90 ± 5%,–,–,EC50 [1]: 21400 pM
Retatrutide (peptide),–,11 pM,7.62,"EC50, cAMP-dependent CRE6x-luciferase reporter gene assay, HEK293 cells [6]: 8.2 pM; EC50, cAMP-dependent CRE6x-luciferase reporter gene assay, HEK293 cells [7]: 2.2 pM"
